Tests used:
HLA-B*08:01 = assay: IEDB peptide-MHC binding, purified MHC/competitive/radioactivity; filed as Kd, often an IC50 or EC50 that approximates it; ≥ and ≤ were set here for values at or beyond the usual limits of such assays
HLA-B*15:01 = assay: as above
HLA-B*15:03 = assay: as above
HLA-A*32:01 = assay: as above
HLA-B*07:02 = assay: as above
HLA-B*53:01 = assay: as above
HLA-B*27:05 = assay: IEDB peptide-MHC binding, purified MHC/direct/fluorescence; filed as Kd, often an IC50 or EC50 that approximates it; ≥ and ≤ were set here for values at or beyond the usual limits of such assays; settings: source organism: Orthohantavirus hantanense
HLA-B*48:01 = assay: as above; settings: source organism: Orthohantavirus hantanense
HLA-B*40:01 = assay: IEDB peptide-MHC binding, purified MHC/competitive/radioactivity; filed as Kd, often an IC50 or EC50 that approximates it; ≥ and ≤ were set here for values at or beyond the usual limits of such assays; settings: source organism: Dengue virus 3 Martinique/1243/1999
HLA-B*44:03 = assay: as above; settings: source organism: Dengue virus 3 Martinique/1243/1999
HLA-B*44:02 = assay: as above; settings: source organism: Dengue virus 3 Martinique/1243/1999
HLA-A*30:01 = assay: as above; settings: source organism: Vaccinia virus WR
HLA-A*02:01 = assay: IEDB peptide-MHC binding, purified MHC/competitive/fluorescence; filed as Kd, often an IC50 or EC50 that approximates it; ≥ and ≤ were set here for values at or beyond the usual limits of such assays; settings: source organism: Horsepox virus
HLA-B*51:01 = assay: IEDB peptide-MHC binding, purified MHC/competitive/radioactivity; filed as Kd, often an IC50 or EC50 that approximates it; ≥ and ≤ were set here for values at or beyond the usual limits of such assays
[1] = source organism: Vaccinia virus Copenhagen
[2] = source organism: Dengue virus 2 Jamaica/1409/1983
[3] = source organism: Dengue virus 3 Martinique/1243/1999
[4] = source organism: Vaccinia virus WR
[5] = source organism: Dengue virus 3 Sri Lanka/1266/2000

HMAYSFQTF
Kd (HLA-B*08:01; [1]): 733 nM | Kd (HLA-B*15:01; [1]): 0.246 nM | Kd (HLA-B*15:03; [1]): 0.279 nM | Kd (HLA-A*32:01; [1]): 16.3 nM

IPTAMAFHL
Kd (HLA-B*07:02; [2]): 83.1 nM | Kd (HLA-B*53:01; [2]): 49.4 nM

KRIAPMLYK
Kd (HLA-B*27:05): 40.7 nM | Kd (HLA-B*48:01): ≥ 20000 nM

LEFFMMVLL
Kd (HLA-B*40:01): 13.1 nM | Kd (HLA-B*44:03): 2640 nM | Kd (HLA-B*44:02): 10100 nM | Kd (HLA-A*32:01; [3]): 2040 nM

LEFFMMVLLI
Kd (HLA-B*40:01): 12200 nM | Kd (HLA-B*44:03): 9210 nM

LEFIHSQGF
Kd (HLA-B*15:03; [4]): 107 nM

LHAVYSIVF
Kd (HLA-B*15:03; [4]): 8.81 nM

LIGARRTSF
Kd (HLA-B*08:01; [4]): 1.5 nM | Kd (HLA-B*15:01; [4]): 40.1 nM | Kd (HLA-B*15:03; [4]): 176 nM | Kd (HLA-A*32:01; [4]): 5820 nM | Kd (HLA-A*30:01): 563 nM

LIRNKRLSL
Kd (HLA-B*08:01; [4]): 0.783 nM | Kd (HLA-B*15:01; [4]): 455 nM | Kd (HLA-B*15:03; [4]): 215 nM | Kd (HLA-A*32:01; [4]): ≥ 77800 nM | Kd (HLA-A*30:01): 696 nM

LLFLEDVEP
Kd (HLA-A*02:01): ≥ 20000 nM

LPETMETLL
Kd (HLA-B*53:01; [3]): 3580 nM

LPLFIFSLK
Kd (HLA-B*51:01; [3]): 13100 nM

LPMTVAAMGV
Kd (HLA-B*07:02; [5]): 50.7 nM | Kd (HLA-B*51:01; [5]): 633 nM

LPVWLAYRV
Kd (HLA-B*51:01; [2]): 130 nM | Kd (HLA-B*53:01; [2]): 200 nM

Reference: the Immune Epitope Database (IEDB)
